{
  "source": "patent US20260184779A1",
  "about": "(XBIOTECH, published 2026)",
  "molecular_target": "T1, recombinant human interleukin 1 alpha (IL-1α) (human, UniProt P01583 113-271)",
  "T1 sequence (looked up)": "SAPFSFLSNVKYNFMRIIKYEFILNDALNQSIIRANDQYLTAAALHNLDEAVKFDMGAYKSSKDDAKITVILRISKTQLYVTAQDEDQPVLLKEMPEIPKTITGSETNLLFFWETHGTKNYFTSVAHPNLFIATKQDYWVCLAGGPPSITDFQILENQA",
  "test": "cell-based or functional assay",
  "data": [
    {"binder": "human monoclonal antibody designated XIA13 (antibody, V domains shown) VH: QVQLVQSGAEVKKPGSSVKVSCKASGGRFTNYAILWVRQAPGQGLQWLGGIIPIFDETDHAQDFQDRLTITVDESMTTAYMELSSLRPEDTAIYYCATGSNSYYGLYWGQGTLVTVSS VL: not shown", "values": [
      {"measurement": "HUVEC-based potency assay: ICAM-1 expression on HUVEC cells by flow cytometry, IC50", "result": 3.7, "unit": "ng/mL"}
    ]}
  ]
}
